Assay [1] has as its target human BDCA-2 on cells (Jurkat-hBDCA-2 cells; human pDCs; human PBMCs) (human) (UniProt Q8WTT0). Kind of assay: flow cytometry on Jurkat-hBDCA-2 cells.
Assay [2] deals with cynomolgus monkey BDCA-2 on cells (Jurkat-cynoBDCA-2 cells; cynomolgus monkey pDCs) (cynomolgus monkey). The experiment in a line: flow cytometry on Jurkat-cynoBDCA-2 cells. For orientation: In flow cytometry, cells or beads pass a laser one at a time.
Sequence of cynomolgus monkey BDCA-2 on cells (Jurkat-cynoBDCA-2 cells; cynomolgus monkey pDCs) (cynomolgus monkey) (chain, as listed by the source): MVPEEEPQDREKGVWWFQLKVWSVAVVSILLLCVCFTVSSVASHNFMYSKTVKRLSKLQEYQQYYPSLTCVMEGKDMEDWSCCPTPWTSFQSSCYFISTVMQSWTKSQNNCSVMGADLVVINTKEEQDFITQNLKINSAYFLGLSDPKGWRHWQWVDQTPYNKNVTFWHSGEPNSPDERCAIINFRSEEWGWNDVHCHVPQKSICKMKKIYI

Sequence of human BDCA-2 on cells (Jurkat-hBDCA-2 cells; human pDCs; human PBMCs) (human) (Q8WTT0 whole entry): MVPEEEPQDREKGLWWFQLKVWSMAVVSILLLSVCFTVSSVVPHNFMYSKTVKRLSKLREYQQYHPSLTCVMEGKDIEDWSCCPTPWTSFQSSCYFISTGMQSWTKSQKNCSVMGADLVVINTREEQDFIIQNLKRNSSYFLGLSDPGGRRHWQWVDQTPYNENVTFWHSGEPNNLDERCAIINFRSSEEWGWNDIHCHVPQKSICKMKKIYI

Take Isotype control (antibody): the results for the MFI in assay [1] and in assay [2] were 17.5 and 67.3, respectively.

The values above are taken from patent publication EP4775675A1.
